What was measured:
[1] = molecular target: HER2 on human breast cancer tumor cells (human) (UniProt P04626); test: flow cytometry (FL2-A) on SUM185 human breast cancer cells; unstained cells 71.5
[2] = molecular target: T1, human Nectin-4 expressed on cells (human, UniProt Q96NY8 32-510); test: as above
T1 sequence: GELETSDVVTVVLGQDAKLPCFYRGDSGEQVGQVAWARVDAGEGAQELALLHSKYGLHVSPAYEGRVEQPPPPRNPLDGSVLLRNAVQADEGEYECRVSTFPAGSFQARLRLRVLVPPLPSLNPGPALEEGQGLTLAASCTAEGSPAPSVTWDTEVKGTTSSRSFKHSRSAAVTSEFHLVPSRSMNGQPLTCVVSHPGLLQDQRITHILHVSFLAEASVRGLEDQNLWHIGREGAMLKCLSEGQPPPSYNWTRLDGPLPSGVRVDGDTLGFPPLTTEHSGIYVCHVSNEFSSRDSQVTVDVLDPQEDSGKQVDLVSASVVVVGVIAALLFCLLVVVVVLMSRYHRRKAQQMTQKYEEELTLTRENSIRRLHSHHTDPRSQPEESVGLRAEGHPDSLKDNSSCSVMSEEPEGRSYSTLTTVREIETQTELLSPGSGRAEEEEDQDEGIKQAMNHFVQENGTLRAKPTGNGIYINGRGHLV

[3] = molecular target: T1, human Nectin-4 expressed on cells; test: flow cytometry on SUM185 cells, antibody at 10 ug/ml
[4] = molecular target: T1, human Nectin-4 expressed on cells; test: flow cytometry on SUM190 cells, antibody at 10 ug/ml
[5] = test system: SUM190 cells subcutaneously engrafted in CB17-SCID mice; test: In vivo efficacy of ggfg-Dxd ADCs, Nectin-4 low/SUM190 mouse model of human breast cancer; conditions: single i.v. injection 3 mg/kg; each antibody conjugated to ggfg-Dxd, DAR=8; FIG. 4
Protocol: SUM190 cells were subcutaneously engrafted in CB17-SCID immunodeficient mice at a dose of 0.5 million cells in 100 μl of Matrigel with growth factor diluted at ½ in PBS. When tumors reached a volume between 195 and 250 mm3, mice were randomized into groups of 9 mice for intravenous treatment with a single injection of 3 mg/kg of camptothecin ADCs. Tumor growths were followed twice a week. Kaplan Meier survival curves were established by using GraphPad Prism V7 software according to the following criteria: When the tumor volume reached 1500 mm3, mice were euthanized and considered dead on the day of sacrifice (D).

[6] = molecular target: human Nectin-4 (protein used in the SPR affinity measurements) (human) (UniProt Q96NY8); test: SPR, human IgG1
[7] = molecular target: T1, human Nectin-4 expressed on cells; test: cell-based or functional assay
[8] = molecular target: T1, human Nectin-4 expressed on cells; test: cell-based or functional assay; remark: listed apart in the source
human Nectin-4 = molecular target: T2, human Nectin-4 (Homo sapiens, UniProt Q96NY8); test: Binding to human Nectin-4 by SPR; conditions: second set (Table 7); for ka: SPR association constant; for kd: SPR dissociation constant; for Kd: SPR, human IgG1 isotype antibodies
T2 sequence (Q96NY8 32-510): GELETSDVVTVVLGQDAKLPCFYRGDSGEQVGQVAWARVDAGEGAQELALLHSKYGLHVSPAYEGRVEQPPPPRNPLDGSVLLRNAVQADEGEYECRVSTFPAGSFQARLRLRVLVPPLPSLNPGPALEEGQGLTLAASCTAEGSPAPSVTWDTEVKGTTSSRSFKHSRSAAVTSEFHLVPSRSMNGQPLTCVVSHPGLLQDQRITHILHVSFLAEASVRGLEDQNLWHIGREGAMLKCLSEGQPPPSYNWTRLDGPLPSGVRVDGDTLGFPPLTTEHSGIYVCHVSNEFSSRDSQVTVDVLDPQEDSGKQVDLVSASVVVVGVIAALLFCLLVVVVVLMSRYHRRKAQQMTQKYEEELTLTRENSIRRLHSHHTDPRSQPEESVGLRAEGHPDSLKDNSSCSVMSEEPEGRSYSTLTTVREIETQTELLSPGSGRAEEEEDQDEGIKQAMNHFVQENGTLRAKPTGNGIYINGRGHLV
Protocol: (§1) The antibodies in Table 3 of Example 3 were cloned as human IgG1 isotype antibodies, produced and purified, then tested for binding to human Nectin-4. Affinity of the 16 humanized variants, as well as their association and dissociation constants were assessed by SPR analysis. Table 4 summarizes all the calculated constants (Affinity constant KD (nM), association constant ka (1/Ms) and dissociation constant kd (1/s)).
as §1, with “Table 6” for “Table 3”, “Example 5” for “Example 3”, “Table 7” for “Table 4”

[9] = molecular target: T1, human Nectin-4 expressed on cells; test: flow cytometry on SUM190 cells, MedFI at saturation
Protocol: The humanized antibodies in Table 3 of Example 3 and in Table 6 of Example 5 were cloned, produced and purified, then tested for binding to Nectin-4 expressing cells by flow cytometry. Binding of humanized variants in human IgG1 format was determined on the SUM190 cell line expressing high levels of Nectin-4.

[10] = molecular target: T3, rat Nectin-4 protein expressed on CHO cells (rat, UniProt Q8R007 31-508 (mouse entry)); test: flow cytometry on CHO cells expressing rat Nectin-4, Median MFI (PE)
T3 construct: no cleavage site is stated; also called Rat Nectin-4 V5
T3 chain: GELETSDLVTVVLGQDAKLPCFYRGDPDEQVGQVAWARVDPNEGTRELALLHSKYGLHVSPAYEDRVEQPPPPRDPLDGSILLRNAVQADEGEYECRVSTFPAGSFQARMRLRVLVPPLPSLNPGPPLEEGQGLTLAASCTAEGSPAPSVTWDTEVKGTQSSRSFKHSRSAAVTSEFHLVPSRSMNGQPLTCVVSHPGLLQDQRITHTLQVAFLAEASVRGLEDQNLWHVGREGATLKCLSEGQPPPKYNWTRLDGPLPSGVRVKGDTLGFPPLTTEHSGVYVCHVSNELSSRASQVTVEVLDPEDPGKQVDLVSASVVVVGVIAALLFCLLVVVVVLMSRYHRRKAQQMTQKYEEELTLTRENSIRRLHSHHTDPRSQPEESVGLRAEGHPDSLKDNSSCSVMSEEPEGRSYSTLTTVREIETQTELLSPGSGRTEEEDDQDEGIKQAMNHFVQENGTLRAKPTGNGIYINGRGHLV
Protocol: (§2) Anti-Nectin-4 antibodies were tested by flow cytometry for binding to different CHO cell lines made to express respectively the mouse, cynomolgus and rat Nectin-4 protein (including an N-terminal V5 tag not shown in the sequences below).

[11] = molecular target: T4, cynomolgus Nectin-4 protein expressed on CHO cells (cynomolgus, UniProt Q96NY8 32-510 (human entry)); test: flow cytometry on CHO cells expressing cynomolgus Nectin-4, Median MFI (PE)
T4 construct: also called Cyno Nectin-4 V5
T4 chain: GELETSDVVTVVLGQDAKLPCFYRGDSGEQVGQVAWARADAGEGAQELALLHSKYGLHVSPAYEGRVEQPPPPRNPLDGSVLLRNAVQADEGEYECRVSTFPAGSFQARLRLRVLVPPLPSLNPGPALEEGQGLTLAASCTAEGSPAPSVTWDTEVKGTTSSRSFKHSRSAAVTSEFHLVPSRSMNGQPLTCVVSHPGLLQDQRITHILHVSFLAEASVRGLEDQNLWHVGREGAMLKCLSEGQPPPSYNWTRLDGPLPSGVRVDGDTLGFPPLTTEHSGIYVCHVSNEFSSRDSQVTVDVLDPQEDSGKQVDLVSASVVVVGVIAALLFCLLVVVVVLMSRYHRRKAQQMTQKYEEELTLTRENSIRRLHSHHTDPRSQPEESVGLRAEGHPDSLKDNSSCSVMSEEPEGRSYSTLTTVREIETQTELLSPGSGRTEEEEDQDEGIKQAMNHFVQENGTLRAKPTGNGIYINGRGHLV
Protocol: as §2

## Control Antibody
[1]
  Median of fluo.: 94.5
[2]
  Median of fluo.: 94.5

## anti-Nectin-4 antibody (ASG-22ME modified as a human IgG1 isotype containing a N297Q mutation)
[3]
  MFI: 4330 MFI
[4]
  MFI: 991 MFI

## enfortumab [reference compound]
[5]
  control of tumor growth: no longer showed the ability to control tumor growth

B1: H7L1 (antibody, human IgG1, V domains shown)
VH: QVQLVQSGAEVKKPGASVKVSCKASGYIFTSYWMHWVKQRPGQGLEWIGEIDPSDSYTNYNQKFKGRVTLTLDKSTSTTYMELSSLRSEDTAVYYCARGYGNYGDYWGQGTLVTVSS
VL: DVVMTQSPLSLPVTPGEPASISCRSSKSLLHSNGITYLYWYLQKPGQSPQLLIYQMSNLASGVPDRFSSSGSGTDFTLKISRVEAEDVGVYYCAQNLELPWTFGGGTKVEIK
notes: human IgG1 isotype
[6]
  Kd: 29.7 nM
  koff: 0.006 s⁻¹
  kon: 200000 M⁻¹ s⁻¹
[7]
  internalization efficiency on SUM190, normalized to chimeric parental antibody (Fab-ZAP, CTG), experiment 1: 129 % of chimeric parental
  internalization efficiency on SUM190, normalized to chimeric parental antibody (Fab-ZAP, CTG), experiment 2: 73.1 % of chimeric parental
[8]
  internalization efficiency on MDA-MB-468, normalized to chimeric parental antibody (Fab-ZAP, CTG), first column: 79 % of chimeric parental
  internalization efficiency on MDA-MB-468, normalized to chimeric parental antibody (Fab-ZAP, CTG), second column: 79 % of chimeric parental
Human Nectin-4
  ka: 200000 M⁻¹ s⁻¹
  kd: 0.006 s⁻¹
  Kd: 29.7 nM
[9]
  Max MedFi: 17800 MedFI

B2: H8L1 (antibody, human IgG1, V domains shown)
VH: QVQLVQSGAEVKKPGASVKVSCKASGYIFTSYWMHWVKQAPGQGLEWIGEIDPSDSYTNYNQKFKGRVTMTLDKSTSTTYMELSSLRSEDTAVYYCARGYGNYGDYWGQGTLVTVSS
VL: DVVMTQSPLSLPVTPGEPASISCRSSKSLLHSNGITYLYWYLQKPGQSPQLLIYQMSNLASGVPDRFSSSGSGTDFTLKISRVEAEDVGVYYCAQNLELPWTFGGGTKVEIK
notes: human IgG1 isotype
[6]
  Kd: 19.2 nM
  koff: 0.0048 s⁻¹
  kon: 250000 M⁻¹ s⁻¹
[7]
  internalization efficiency on SUM190, normalized to chimeric parental antibody (Fab-ZAP, CTG), experiment 1: 132 % of chimeric parental
  internalization efficiency on SUM190, normalized to chimeric parental antibody (Fab-ZAP, CTG), experiment 2: 65.2 % of chimeric parental
[8]
  internalization efficiency on MDA-MB-468, normalized to chimeric parental antibody (Fab-ZAP, CTG), first column: 71.2 % of chimeric parental
  internalization efficiency on MDA-MB-468, normalized to chimeric parental antibody (Fab-ZAP, CTG), second column: 71.2 % of chimeric parental
Human Nectin-4
  ka: 250000 M⁻¹ s⁻¹
  kd: 0.0048 s⁻¹
  Kd: 19.2 nM
[9]
  Max MedFi: 17300 MedFI

B3: H7L3 (antibody, human IgG1, V domains shown)
VH: QVQLVQSGAEVKKPGASVKVSCKASGYIFTSYWMHWVKQRPGQGLEWIGEIDPSDSYTNYNQKFKGRVTLTLDKSTSTTYMELSSLRSEDTAVYYCARGYGNYGDYWGQGTLVTVSS
VL: DVVMTQSALSNPVTPGEPASISCRSSKSLLHSNGITYLYWYLQKPGQSPQLLIYQMSNLASGVPDRFSSSGSGTDFTLKISRVEAEDVGVYYCAQNLELPWTFGGGTKVEIK
notes: human IgG1 isotype
[6]
  Kd: 49 nM
  koff: 0.0055 s⁻¹
  kon: 110000 M⁻¹ s⁻¹
[7]
  internalization efficiency on SUM190, normalized to chimeric parental antibody (Fab-ZAP, CTG), experiment 1: 88.5 % of chimeric parental
  internalization efficiency on SUM190, normalized to chimeric parental antibody (Fab-ZAP, CTG), experiment 2: 61.3 % of chimeric parental
[8]
  internalization efficiency on MDA-MB-468, normalized to chimeric parental antibody (Fab-ZAP, CTG), first column: 51.8 % of chimeric parental
  internalization efficiency on MDA-MB-468, normalized to chimeric parental antibody (Fab-ZAP, CTG), second column: 51.8 % of chimeric parental
Human Nectin-4
  ka: 110000 M⁻¹ s⁻¹
  kd: 0.0055 s⁻¹
  Kd: 49 nM
[9]
  Max MedFi: 25000 MedFI

B4: H7L2 (antibody, human IgG1, V domains shown)
VH: QVQLVQSGAEVKKPGASVKVSCKASGYIFTSYWMHWVKQRPGQGLEWIGEIDPSDSYTNYNQKFKGRVTLTLDKSTSTTYMELSSLRSEDTAVYYCARGYGNYGDYWGQGTLVTVSS
VL: DVVMTQSPLSNPVTPGEPASISCRSSKSLLHSNGITYLYWYLQKPGQSPQLLIYQMSNLASGVPDRFSSSGSGTDFTLKISRVEAEDVGVYYCAQNLELPWTFGGGTKVEIK
notes: human IgG1 isotype
[6]
  Kd: 39.5 nM
  koff: 0.0063 s⁻¹
  kon: 160000 M⁻¹ s⁻¹
[7]
  internalization efficiency on SUM190, normalized to chimeric parental antibody (Fab-ZAP, CTG), experiment 1: 89.6 % of chimeric parental
  internalization efficiency on SUM190, normalized to chimeric parental antibody (Fab-ZAP, CTG), experiment 2: 74.8 % of chimeric parental
[8]
  internalization efficiency on MDA-MB-468, normalized to chimeric parental antibody (Fab-ZAP, CTG), first column: 58.7 % of chimeric parental
  internalization efficiency on MDA-MB-468, normalized to chimeric parental antibody (Fab-ZAP, CTG), second column: 58.7 % of chimeric parental
Human Nectin-4
  ka: 160000 M⁻¹ s⁻¹
  kd: 0.0063 s⁻¹
  Kd: 39.5 nM
[9]
  Max MedFi: 23400 MedFI

B5: enfortumab (antibody, V domains shown)
VH: EVQLVESGGGLVQPGGSLRLSCAASGFTFSSYNMNWVRQAPGKGLEWVSYISSSSSTIYYADSVKGRFTISRDNAKNSLSLQMNSLRDEDTAVYYCARAYYYGMDVWGQGTTVTVSS
VL: DIQMTQSPSSVSASVGDRVTITCRASQGISGWLAWYQQKPGKAPKFLIYAASTLQSGVPSRFSGSGSGTDFTLTISSLQPEDFATYYCQQANSFPPTFGGGTKVEIKR
[10]
  EC50 (read off the curve): ~0.2 µg/mL
[11]
  EC50 (read off the curve): ~0.08 µg/mL
